Measured values reported in PMC6083498, “F-CphI represents a new homing endonuclease family using the Endo VII catalytic motif”.

Target: T1, F-CphI (cyanophage S-PM2, UniProt Q7Y4H4 1-142)
T1 sequence: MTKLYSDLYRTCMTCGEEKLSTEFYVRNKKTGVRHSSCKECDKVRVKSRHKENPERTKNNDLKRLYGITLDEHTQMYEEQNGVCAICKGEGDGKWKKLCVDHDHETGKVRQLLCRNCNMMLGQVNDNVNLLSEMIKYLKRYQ
Assay: EMSA; no Mg2+ added; Kd value only in figure; EMSA: 10 mM Tris-HCl pH 8.0, 2% glycerol, 2 ug/ml poly-dIdC, 2 ug/ml BSA, 0.2 mM DTT, on ice 15 min, 2 nM labeled DNA; 8% native PAGE in 1X TBE
Conditions: protein: recombinant; tags: C-terminal Myc-His (pBAD/Myc-HisB; in frame with downstream His-tag); label: 5'-32P on top strand; blunt

B1: SBM4-60Top duplex (dsDNA)
DNA 1: TGGTCTGGGTATGGAAGTGATGCACGAGCGCAACGCTCACAACTTCCCTCTCGACCTTGC
DNA 2: GCAAGGTCGAGAGGGAAGTTGTGAGCGTTGCGCTCGTGCATCACTTCCATACCCAGACCA
binding result: binds
